Results taken from US20250027068.

How the values were obtained:
[1] = target: pooled human IgG (human IgG1, 2, 3 and 4)
[2] = target: pooled human IgG (human IgG1,2,3 and 4)

Protein | Enzyme Activity Endpoint Assay (purified): Fab'2 [1] [ng/µL] | Enzyme Activity Endpoint Assay (purified): Fc [1] [ng/µL] | Enzyme Activity Endpoint Assay (purified): IgG [1] [ng/µL] | Enzyme Activity Endpoint Assay (purified): scIgG [1] [ng/µL] | Enzyme Activity Endpoint Assay (purified): Fab′2 [1] [ng/µL] | Enzyme Activity Endpoint Assay: Fab′2 [2] [ng/µL] | Enzyme Activity Endpoint Assay: Fc [2] [ng/µL] | Enzyme Activity Endpoint Assay: IgG [2] [ng/µL] | Enzyme Activity Endpoint Assay: scIgG [2] [ng/µL]
PRT-594 (protein) MANQEIRYSEETPSTITSVWTKGVTPPTDFIQNEDVLHAPYIANQGWYDITKTFNGKDDLLCGAATAGNMLHWWFDQNKEQIENYLKKHPEKQKINFNGEQMFDVKEAIDTKDSQLDSALFEYFKDKAFPYLSTKHLGVFPDHVIDMFINGYRLSLTNHGPTPVKRGTKDPRGGIFDAVFTRGDQSKLLTSRHDFKEKTLNEISDLIKQELTEGKALGLSHTYANVRINHVINLWGADFNAEGNLEAIYVTDSDSNASIGMKKYYVGVNSAGKVAISAKEIEGDNIGAQVLGLFTLSTGQDIWNQTNLEHHHHHH | 138 | 271 | 123 | 487 | – | – | – | – | –
PRT-435 (protein) MSQTEDSESLQRLRDIEDFQAEKEKQNVVYTKWLDGVDVKDHDFRKIVDGNIAYYATPLLNGRGFYDINKDFNRDSDKCAAAVAANMFHYWLDRNRDNVDRFLRQNPEKHGIIELPDGQLKLSDFLNTYESDDGYRDKSKLFDFISNNFNGPVWTDKLLDNYINGYAYNYKYGRTIEDPTKNTSKINFFKEVFNEKILTNNHSIRNQNEFSVLLSEALYTGKAIGLSYGPAGLRHSLGHIISVWGADLDADGNVVAIYVTDSDDKKLTIGDERVGLKRYKISTDDEGRLRLTAYEETHNTGGQIRGLWTLDTGKQAWADYFDKTEQTGTDQAEQ | – | 205 | 625 | 380 | 35 | 35 | 205 | 625 | 380
PRT-432 (protein) MSQTEDSESLQRLRDIEDFQAEKKKQNVVYTKWLDGVDVKDHDFRKIVDGNIAYYATPLLNGRGFYDINKDFNRDSDKCAAAVAANMFHYWLDRNRDNVDRFLRQNPEKHGIIELPDGQLKLSDFLNTYESDDGYRDKSKLFDFISNNFNGPVWTDKLLDNYINGYAYNSKYGRTIEDPTKNTSKINFFKEVFNEKILTNNHSIRNQNEFSVLLSEALYTGKAIGLSYGPAGLRHSLGHIISVWGADLDADGNVVAIYVTDSDDKKLTIGDERVGLKRYKISTDDEGRLRLTAYEETHNTGGQIRGLWTLDTGKQAWADYFDKTEQTGTDQAEQ | – | 305 | 0 | 385 | 462 | – | – | – | –
PRT-431 (protein) MSQTEDSESLQRLRDIEDFQAEKKKQNVVYTKWLDGVDVKDHDFRKIVDGNIAYYATPLLNGRGFYDINKDFNRDSDKCAAAVAANMFHYWLDRNRDNVDRFLRQNPEKHGIIELPDGQLKLSDFLNTYESDDGYRDKSKLFDFISENFNGPVWTDKLLDNYINGYAYNYKYGRTIEDPTKNTSKINFFKEVFNEKILTNNHSIRNQNEFSVLLSEALYTGKAIGLSYGPAGLRHSLGHIISVWGADLDADGNVVAIYVTDSDDKKLTIGDERVGLKRYKISTDDEGRLRLTAYEETHNTGGQIRGLWTLDTGKQAWADYFDKTEQTGTDQAEQ | – | 310 | 0 | 230 | 521 | – | – | – | –
PRT-440 (protein) MSQTEDSESLQRLRDIEDFQAEKKKQNVVYTKWLDGVDVKDHDFRKIVDGNIAYYATPLLNGRGFYDINKDFNRDSDKCAAAVAANMFHYWLDRNRDNVDRFLRQNPEKHGIIELPDGQLKLSDFLNTYESDDGYRDKSKLFDFISNNFNGPVWTDKLLDNYINGYAYNYKYGRTIEDPTKNTSKINFFKEVFNEKILTNNHSIRNQNELSVLLSEALYTGKAIGLSYGPAGLRHSLGHIISVWGADLDADGNVVAIYVTDSDDKKLTIGDERVGLKRYKISTDDEGRLRLTAYEETHNTGGQIRGLWTLDTGKQAWADYFDKTEQTGTDQAEQ | 575 | 328 | 0 | 245 | – | – | – | – | –
PRT-436 (protein) MSQTEDSESLQRLRDIEDFQAEKKDQNVVYTKWLDGVDVKDHDFRKIVDGNIAYYATPLLNGRGFYDINKDFNRDSDKCAAAVAANMFHYWLDRNRDNVDRFLRQNPEKHGIIELPDGQLKLSDFLNTYESDDGYRDKSKLFDFISNNFNGPVWTDKLLDNYINGYAYNYKYGRTIEDPTKNTSKINFFKEVFNEKILTNNHSIRNQNEFSVLLSEALYTGKAIGLSYGPAGLRHSLGHIISVWGADLDADGNVVAIYVTDSDDKKLTIGDERVGLKRYKISTDDEGRLRLTAYEETHNTGGQIRGLWTLDTGKQAWADYFDKTEQTGTDQAEQ | 445 | 305 | 0 | 379 | – | – | – | – | –
PRT-430 (protein) MSQTEDSESLQRLRDIEDFQAEKKKQNVVYTKWLDGVDVKDHDFRKIVDGNSAYYATPLLNGRGFYDINKDFNRDSDKCAAAVAANMFHYWLDRNRDNVDRFLRQNPEKHGIIELPDGQLKLSDFLNTYESDDGYRDKSKLFDFISNNFNGPVWTDKLLDNYINGYAYNYKYGRTIEDPTKNTSKINFFKEVFNEKILTNNHSIRNQNEFSVLLSEALYTGKAIGLSYGPAGLRHSLGHIISVWGADLDADGNVVAIYVTDSDDKKLTIGDERVGLKRYKISTDDEGRLRLTAYEETHNTGGQIRGLWTLDTGKQAWADYFDKTEQTGTDQAEQ | – | 330 | 0 | 324 | 492 | – | – | – | –
PRT-438 (protein) MSQTEDSESLQRLRDIEDFQAEKKKQNVVYTKWLDGVDVKDHDFRKIVDGNIAYYATPLLNGRGLYDINKDFNRDSDKCAAAVAANMFHYWLDRNRDNVDRFLRQNPEKHGIIELPDGQLKLSDFLNTYESDDGYRDKSKLFDFISNNFNGPVWTDKLLDNYINGYAYNYKYGRTIEDPTKNTSKINFFKEVFNEKILTNNHSIRNQNEFSVLLSEALYTGKAIGLSYGPAGLRHSLGHIISVWGADLDADGNVVAIYVTDSDDKKLTIGDERVGLKRYKISTDDEGRLRLTAYEETHNTGGQIRGLWTLDTGKQAWADYFDKTEQTGTDQAEQ | 578 | 320 | 0 | 249 | – | – | – | – | –
PRT-441 (protein) MSQTEDSESLQRLRDIEDFQAEKKKQNVVYTKWLDGVDVKDHDFRKIVDGNIAYYATPLLNGRGFYDINKDFNRDSDKCAAAVAANMFHYWLDRNRDNVDRFLRQNPEKHGIIELPDGQLKLSDFLNTYESDDGYRDKSKLFDFISNNFNGPVWTDKLLDNYINGYAYNYKYGRTIEDPTKNTSKINFFKEVFNEKILTNNHSIRNQNEFSVLLSEALYTGKAIGLSYGPAGTRHSLGHIISVWGADLDADGNVVAIYVTDSDDKKLTIGDERVGLKRYKISTDDEGRLRLTAYEETHNTGGQIRGLWTLDTGKQAWADYFDKTEQTGTDQAEQ | 514 | 310 | 0 | 217 | – | – | – | – | –
PRT-445 (protein) MSQTEDSESLQRLRDIEDFQAEKKKQNVVYTKWLDGVDVKDHDFRKIVDGNIAYYATPLLNGRGFYDINKDFNRDSDKCAAAVAANMFHYWLDRNRDNVDRFLRQNPEKHGIIELPDGQLKLSDFLNTYESDDGYRDKSKLFDFISNNFNGPVWTDKLLDNYINGYAYNYKYGRTIEDSTKNTSKINFFKEVFNEKILTNNHSIRNQNEFSVLLSEALYTGKAIGLSYGPAGLRHSLGHIISVWGADLDADGNVVAIYVTDSDDKKLTIGDERVGLKRYKISTDDEGRLRLTAYEETHNTGGQIRGLWTLDTGKQAWADYFDKTEQTGTDQAEQ | 559 | 330 | 0 | 259 | – | – | – | – | –
PRT-577 (protein) MANQEIRYSKATPSTITSVWTKGVTPPENFIYNEDVLHAPYLANQGWYDITKTFNGKDDLLCGAATAGNMLHWWFDQNKEQIERYLKEHPEKQKINFNGEQMFDVKEAIDTKDSQTNSKLFEYFKDKAFPYLSTKHLGVFPDHVIDMFINGYRLSLTNHGPTPVKEQTKDPRGGIFDAVFTRGDQSKLLTSRHDFKEKTLNEISQLIKQELTEGKALGLSHTYANVRINHVINLWGADFNAEGNLEAIYVTDSDSNASIGMKKYYVGVNSAGKVAISAKEIEGDNIGAQVLGLFTLSTGQDIWQQTNLEHHHHHH | 566 | 338 | 0 | 230 | – | – | – | – | –
PRT-585 (protein) MANQEIRYSKATPSTITSVWTKGVTPPEQFIYNEDVLHAPYIANQGWYDITKTFNGKDDLLCGAATAGNMLHWWFDQNKEQIERYLKKHPEKQKINFNGEQMFDVKEAIDTKDSQTNSKLFEYFKDKAFPYLSTKHLGVFPDHVIDMFINGYRLSLTNHGPTPVKEQTKDPRGGIFDAVFTRGDQSKLLTSRHDFKEKTLNEISDLIKQELTEGKALGLSHTYANVRINHVINLWGADFNAEGNLEAIYVTDSDSNASIGMKKYYVGVNSAGKVAISAKEIEGDNIGAQVLGLFTLSTGQDIWEQTNLEHHHHHH | 574 | 303 | 0 | 229 | – | – | – | – | –
